Laboratory results from the supplement of paper PMC10126150.
± gives the standard deviation of the averaged measurements.

Tested on: ATP
Test: switch fluorescence ratio, 500 uM ATP over buffer (Cy3 cluster intensity, sum of 5 cycles each) (fold (ratio)); higher = stronger signal-on switching upon ATP binding; sequences stand for … in TCGTCGGCAGCGTCAGATGTGTATAAGAGACAGTTTTTTTTTTTTTTTTTTTTTTTTT…TC
Conditions: aptamer strand: ATP DNA aptamer (quencher-CACCTGGGGGAGTATTGCGGAGGAAGG + anchor), 100 nM annealed; ATP concentration: 500 uM
Procedure, shortened: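 Switching-strand clusters labelled with Cy3 on a modified Illumina MiSeq flow-cell were annealed to 100 nM quencher-labelled ATP aptamer, imaged in selection buffer, and re-imaged after 15 min with 500 uM ATP at 22 °C. This was done over five cycles with NaOH stripping and re-annealing in between. The fluorescence ratio is summed target-cycle over summed buffer-cycle Cy3 intensity per cluster, averaged per switch-domain sequence, excluding clusters outside 100-1000 RFU.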
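Also: ATP exposure 15 min at 22 °C before imaging.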

Sequence: GGGCTATGTC
- switch fluorescence ratio: 1.01 ± 0.038

Sequence: GTGCCGGGGC
- switch fluorescence ratio: 1.08 ± 0.11

Sequence: TGGGTTATGA
- switch fluorescence ratio: 0.9941 ± 0.0084

Sequence: TTGAGCTTCA
- switch fluorescence ratio: 1.115 ± 0.0063

Sequence: AAGATAGCGG
- switch fluorescence ratio: 0.9978 ± 6.2e-05

Sequence: GAATCCGGGA
- switch fluorescence ratio: 1.05 ± 0.087

Sequence: GGGGGCGGTG
- switch fluorescence ratio: 1 ± 0.038

Sequence: AATGGGAAGA
- switch fluorescence ratio: 0.9987 ± 0.0043

Sequence: GTGTGGTTTT
- switch fluorescence ratio: 1.03 ± 0.015

Sequence: TTCGTCGGTA
- switch fluorescence ratio: 1.09 ± 0.15

Sequence: TGAATTTTAG
- switch fluorescence ratio: 0.991 ± 0.01

Sequence: CAGTCCGGGA
- switch fluorescence ratio: 1.101 ± 0.0079

Sequence: TGGGTGTTTT
- switch fluorescence ratio: 1.05 ± 0.12

Sequence: CGGAGTTATG
- switch fluorescence ratio: 1.09 ± 0.04

Sequence: TCGTAGGTAA
- switch fluorescence ratio: 1.1 ± 0.12

Sequence: AGTCGGTGGA
- switch fluorescence ratio: 1 ± 0.011

Sequence: TGTTTGTTCG
- switch fluorescence ratio: 0.986 ± 0.021

Sequence: AAAAGGCTAA
- switch fluorescence ratio: 1 ± 0.0037

Sequence: AGAAAGGATG
- switch fluorescence ratio: 1.01 ± 0.032

Sequence: TTAATAGAGT
- switch fluorescence ratio: 1 ± 0.018

Sequence: GCGTAACCGT
- switch fluorescence ratio: 0.99 ± 0.038

Sequence: TGGCGAAGGA
- switch fluorescence ratio: 1.018 ± 0.0019

Sequence: TTTGTATTCA
- switch fluorescence ratio: 1.01 ± 0.06

Sequence: GACTGATTGG
- switch fluorescence ratio: 1.02 ± 0.012

Sequence: GTATTGTCAG
- switch fluorescence ratio: 0.9663 ± 0.00064

Sequence: ATCACAGGTT
- switch fluorescence ratio: 1.07 ± 0.0082

Sequence: TGTTACGATA
- switch fluorescence ratio: 1.1181 ± 0.00041

Sequence: TAAGATTTGT
- switch fluorescence ratio: 0.99 ± 0.02

Sequence: TTGTTATAGG
- switch fluorescence ratio: 1.06 ± 0.14

Sequence: GACTGTTCGG
- switch fluorescence ratio: 0.985 ± 0.025

Sequence: ATCCCCGACC
- switch fluorescence ratio: 1.25 ± 0.063

Sequence: TGGGGAGGAT
- switch fluorescence ratio: 0.974 ± 0.023

Sequence: CTATGTGGAG
- switch fluorescence ratio: 0.975 ± 0.033

Sequence: TGATTGCTAT
- switch fluorescence ratio: 1.01 ± 0.039

Sequence: TAGCTCGGCT
- switch fluorescence ratio: 0.95364 ± 0.00022

Sequence: TGGGATTGCG
- switch fluorescence ratio: 1.04 ± 0.012

Sequence: ATTATAGGTT
- switch fluorescence ratio: 0.996 ± 0.0091

Sequence: AAAAGAGCCC
- switch fluorescence ratio: 1.0191 ± 0.0008

Sequence: TTCTTTGTGA
- switch fluorescence ratio: 1 ± 0.054

Sequence: TCTGGAATAA
- switch fluorescence ratio: 1.66 ± 0.057

Sequence: TTTAAAAGGT
- switch fluorescence ratio: 1 ± 0.011

Sequence: GACGCCGGGT
- switch fluorescence ratio: 1.03 ± 0.02

Sequence: CAGTACGGGG
- switch fluorescence ratio: 1 ± 0.01

Sequence: TTGTTAGTAT
- switch fluorescence ratio: 0.996 ± 0.021

Sequence: GGCAGTTGCT
- switch fluorescence ratio: 0.9882 ± 0.0056

Sequence: GACCTATGGA
- switch fluorescence ratio: 0.997 ± 0.0037

Sequence: TGTCAATTGG
- switch fluorescence ratio: 0.984 ± 0.021

Sequence: GGCTTCGGGG
- switch fluorescence ratio: 0.98028 ± 0.00081

Sequence: CGTCAACTGC
- switch fluorescence ratio: 1.17 ± 0.039

Sequence: ATGGGGGTCC
- switch fluorescence ratio: 1.01 ± 0.068

Sequence: AGTTTCTTAC
- switch fluorescence ratio: 1.01 ± 0.024

Sequence: CAAAAGGTTA
- switch fluorescence ratio: 0.996 ± 0.011

Sequence: TTGATGGGTT
- switch fluorescence ratio: 1.02 ± 0.011

Sequence: CGACGGGGCT
- switch fluorescence ratio: 1.13 ± 0.049

Sequence: TTTCTACGCG
- switch fluorescence ratio: 1.01 ± 0.034

Sequence: GCTCACCTAT
- switch fluorescence ratio: 1.05 ± 0.048

Sequence: GTAATACGTG
- switch fluorescence ratio: 1.14 ± 0.041

Sequence: TGAGACAATA
- switch fluorescence ratio: 1.1 ± 0.011

Sequence: GAAGTTTTTT
- switch fluorescence ratio: 1.002 ± 0.0036

Sequence: GGGGAATCCT
- switch fluorescence ratio: 1.036 ± 0.0077

Sequence: TCCAGAGCGG
- switch fluorescence ratio: 1.34 ± 0.47

Sequence: GACCTTTTT
- switch fluorescence ratio: 1.02 ± 0.042

Sequence: AATGCTTGGG
- switch fluorescence ratio: 1.0044 ± 8.7e-05

Sequence: TGCAATTACT
- switch fluorescence ratio: 3.21 ± 0.24

Sequence: GATTGAGGTC
- switch fluorescence ratio: 0.989 ± 0.037

Sequence: GGGGGGTAAA
- switch fluorescence ratio: 1.04 ± 0.075

Sequence: TGGGATTTCA
- switch fluorescence ratio: 0.979 ± 0.045

Sequence: GTGTGGGGGT
- switch fluorescence ratio: 0.98 ± 0.019

Sequence: TCGTTCGAGG
- switch fluorescence ratio: 0.958 ± 0.013

Sequence: GAGCAACCTT
- switch fluorescence ratio: 1.45 ± 0.014

Sequence: TGGTTGCTTG
- switch fluorescence ratio: 1.01 ± 0.034

Sequence: ACTGAGGCTA
- switch fluorescence ratio: 1.07 ± 0.011

Sequence: TTTAGGGGCT
- switch fluorescence ratio: 0.9764 ± 0.0076

Sequence: TTTTTGTGAA
- switch fluorescence ratio: 0.995 ± 0.033

Sequence: TTTCGTAGGT
- switch fluorescence ratio: 1.02 ± 0.022

Sequence: TCCAATGTAA
- switch fluorescence ratio: 1.06 ± 0.041

Sequence: TGGTTTTGGT
- switch fluorescence ratio: 0.987 ± 0.025

Sequence: GGGGACCATT
- switch fluorescence ratio: 1.01 ± 0.035

Sequence: TAGGCCTTAC
- switch fluorescence ratio: 1.43 ± 0.54

Sequence: GTTCTTGTGT
- switch fluorescence ratio: 1.01 ± 0.023

Sequence: ATGGCAGGTT
- switch fluorescence ratio: 1.01 ± 0.021

Sequence: GTAATTGGGC
- switch fluorescence ratio: 0.964 ± 0.061

Sequence: TGCTCTGGGG
- switch fluorescence ratio: 0.996 ± 0.015

Sequence: TAACAGGTGA
- switch fluorescence ratio: 2.17 ± 0.085

Sequence: TGCGTTCGGC
- switch fluorescence ratio: 0.963 ± 0.041

Sequence: GCGAGGCCAA
- switch fluorescence ratio: 1.28 ± 0.054

Sequence: TCACGCTGTG
- switch fluorescence ratio: 1.01 ± 0.036

Sequence: GTGGCAGGTA
- switch fluorescence ratio: 1 ± 0.012

Sequence: TGTTATATAT
- switch fluorescence ratio: 0.993 ± 0.032

Sequence: GAAAGGGGTC
- switch fluorescence ratio: 1.01 ± 0.074

Sequence: ACCTGGGCGC
- switch fluorescence ratio: 1.2 ± 0.12

Sequence: GTATTGCTTT
- switch fluorescence ratio: 0.963 ± 0.012

Sequence: CATTTAGGTA
- switch fluorescence ratio: 1.001 ± 0.0078

Sequence: TAATGAATAG
- switch fluorescence ratio: 1.01 ± 0.042

Sequence: AATATGCTCC
- switch fluorescence ratio: 1.14 ± 0.064

Sequence: AAAAGAGGGA
- switch fluorescence ratio: 0.999 ± 0.043

Sequence: TAAATTGATT
- switch fluorescence ratio: 1.02 ± 0.014

Sequence: GGGGGGGATA
- switch fluorescence ratio: 1 ± 0.038

Sequence: AGTTAGGTAG
- switch fluorescence ratio: 0.9939 ± 0.0081

Sequence: TTTTGTCGCA
- switch fluorescence ratio: 0.9913 ± 0.0075

Sequence: GTGTGCCGTG
- switch fluorescence ratio: 1.01 ± 0.05

Sequence: GGTCTGGGGT
- switch fluorescence ratio: 1.09 ± 0.21

Sequence: GGTAAGTGTT
- switch fluorescence ratio: 1.003 ± 0.0044

Sequence: AGTACGGAAG
- switch fluorescence ratio: 1.02 ± 0.024

Sequence: CCAATGTGCG
- switch fluorescence ratio: 0.9925 ± 0.0092

Sequence: TATTTATGGT
- switch fluorescence ratio: 0.976 ± 0.039

Sequence: TGCGAAGGTT
- switch fluorescence ratio: 1.04 ± 0.069

Sequence: AGCCTAAGAT
- switch fluorescence ratio: 0.963 ± 0.012

Sequence: CGTTTTGGTG
- switch fluorescence ratio: 0.9914 ± 0.0052

Sequence: GTTGGTATTC
- switch fluorescence ratio: 0.9965 ± 0.0086

Sequence: AGGCGGAACT
- switch fluorescence ratio: 1.02 ± 0.026

Sequence: CAATTGCATC
- switch fluorescence ratio: 1.02 ± 0.014

Sequence: TTGGGTTTTT
- switch fluorescence ratio: 1.04 ± 0.1

Sequence: AATTGTAAGA
- switch fluorescence ratio: 0.992 ± 0.025

Sequence: AGGGTGTGCT
- switch fluorescence ratio: 1.015 ± 0.0042

Sequence: CAGATGTGAC
- switch fluorescence ratio: 1.057 ± 0.0061

Sequence: AACCTCACGC
- switch fluorescence ratio: 1.73 ± 0.2

Sequence: GGTGGGAGGG
- switch fluorescence ratio: 1.008 ± 0.0073

Sequence: GATTAACGTG
- switch fluorescence ratio: 0.9917 ± 0.0044

Sequence: ATAAGTGTCT
- switch fluorescence ratio: 1.02 ± 0.011

Sequence: ATTTGATTCG
- switch fluorescence ratio: 1.008 ± 0.0087

Sequence: TATACGTGTG
- switch fluorescence ratio: 1.031 ± 0.0043

Sequence: AGGCTTGCCA
- switch fluorescence ratio: 0.9991 ± 0.0016

Sequence: CTAATTTACG
- switch fluorescence ratio: 1.06 ± 0.028

Sequence: TACTTACTAG
- switch fluorescence ratio: 1.099 ± 0.01

Sequence: TAGTGTTGGG
- switch fluorescence ratio: 0.9837 ± 0.0015

Sequence: CACGCTTTTT
- switch fluorescence ratio: 1.15 ± 0.23

Sequence: TTTTGAAATC
- switch fluorescence ratio: 1.004 ± 0.0061

Sequence: CATTTATGTG
- switch fluorescence ratio: 0.978 ± 0.021

Sequence: GTTTACAGGC
- switch fluorescence ratio: 0.9875 ± 0.0092

Sequence: TTTATGACAT
- switch fluorescence ratio: 0.971 ± 0.029

Sequence: TTCCTTTAGG
- switch fluorescence ratio: 0.98 ± 0.06

Sequence: CCTGCTGGCG
- switch fluorescence ratio: 1.04 ± 0.12

Sequence: TGGGGATTGC
- switch fluorescence ratio: 1.02 ± 0.048

Sequence: TCGAGATAGC
- switch fluorescence ratio: 1.03 ± 0.011

Sequence: GCTTGGCTTG
- switch fluorescence ratio: 1.02 ± 0.025

Sequence: TGCATAACGT
- switch fluorescence ratio: 1.02 ± 0.024

Sequence: GGCGGGGTTG
- switch fluorescence ratio: 0.996 ± 0.019

Sequence: CGTTTGCCGT
- switch fluorescence ratio: 0.985 ± 0.024

Sequence: TCGTTGCGT
- switch fluorescence ratio: 1.01 ± 0.0017

Sequence: ATTTGAGATT
- switch fluorescence ratio: 1 ± 0.018

Sequence: AACGGTTGGC
- switch fluorescence ratio: 0.975 ± 0.017

Sequence: ATCAAGAGGG
- switch fluorescence ratio: 1.01 ± 0.014

Sequence: TTGGCGTTCG
- switch fluorescence ratio: 1.01 ± 0.025

Sequence: CGACAGCGGC
- switch fluorescence ratio: 2.11 ± 0.094

Sequence: TTGGTCGGGG
- switch fluorescence ratio: 0.991 ± 0.023

Sequence: GCGGTCCCCG
- switch fluorescence ratio: 1.11 ± 0.031

Sequence: TAAGGGACAC
- switch fluorescence ratio: 1.05 ± 0.017

Sequence: CACAAGTTTT
- switch fluorescence ratio: 1.02 ± 0.03

Sequence: TCGTATCATT
- switch fluorescence ratio: 0.976 ± 0.02

Sequence: TTATTTTGAC
- switch fluorescence ratio: 1 ± 0.023

Sequence: GCAACATTTT
- switch fluorescence ratio: 1.01 ± 0.043

Sequence: GACAACATTT
- switch fluorescence ratio: 0.9967 ± 0.004

Sequence: AAGGGCGTGG
- switch fluorescence ratio: 0.982 ± 0.02

Sequence: AGGATGGTAT
- switch fluorescence ratio: 1.003 ± 0.01

Sequence: ACTCGATGTG
- switch fluorescence ratio: 0.989 ± 0.045

Sequence: ACGATAGGGC
- switch fluorescence ratio: 1.06 ± 0.046
